T1: PknB1-279 (His-tagged catalytic kinase domain of Mycobacterium tuberculosis Ser/Thr protein kinase PknB, aa 1-279), P9WI81
T1 chain: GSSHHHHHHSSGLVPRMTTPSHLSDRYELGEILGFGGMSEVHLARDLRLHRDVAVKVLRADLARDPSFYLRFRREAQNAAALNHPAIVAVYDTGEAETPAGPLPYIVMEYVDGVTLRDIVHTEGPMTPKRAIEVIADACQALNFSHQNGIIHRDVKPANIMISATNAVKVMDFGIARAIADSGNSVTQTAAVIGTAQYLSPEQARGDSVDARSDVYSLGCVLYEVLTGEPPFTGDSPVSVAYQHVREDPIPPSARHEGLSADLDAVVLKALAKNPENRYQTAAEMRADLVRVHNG


Key:
[1] = target: PknB1-279 (His-tagged catalytic kinase domain of Mycobacterium tuberculosis Ser/Thr protein kinase PknB, aa 1-279) (Mycobacterium tuberculosis) (UniProt P9WI81); assay: cell-based or functional assay
[2] = target: T1, PknB1-279 (His-tagged catalytic kinase …)

Molecule | MALDI-TOF mass of PknB1-279 after phosphatase treatment (phosphate groups removed) (phosphate groups) [1] | dephosphorylation of autophosphorylated [33P]-PknB1-279 by PstP (SDS-PAGE, autoradiography, band shift) [2] | kinase activity of PknB on MBP with thio-γATP after preincubation with PstP [2]
PstP1-240 (His-tagged catalytic domain of Mycobacterium tuberculosis Ser/Thr protein phosphatase PstP, aa 1-240) (from UniProt P9WHW4 1-240) (enzyme) | 3 | – | –
PstP1-240 (His-tagged catalytic domain of Mycobacterium tuberculosis Ser/Thr protein phosphatase PstP, aa 1-240) (protein) MARVTLVLRYAARSDRGLVRANNEDSVYAGARLLALADGMGGHAAGEVASQLVIAALAHLDDDEPGGDLLAKLDAAVRAGNSAIAAQVEMEPDLEGMGTTLTAILFAGNRLGLVHIGDSRGYLLRDGELTQITKDDTFVQTLVDEGRITPEEAHSHPQRSLIMRALTGHEVEPTLTMREARAGDRYLLCSDGLSDPVSDETILEALQIPEVAESAHRLIELALRGGGPDNVTVVVADVVD | – | PstP is capable of dephosphorylating PknB | prior dephosphorylation of PknB by PstP inhibits kinase activity on MBP

Reference: patent US20070128678A1
